The assay has as its target VirC^4A (HMG synthase VirC, Cys114Ala/Gln334Ala/Arg335Ala/Arg338Ala) (Streptomyces virginiae). In words: SEC-SAXS. Background: Size exclusion chromatography separates by hydrodynamic size, large species first.

From paper PMC11522927 come the findings set out here.

As for “VirC^4A (HMG synthase VirC, Cys114Ala/Gln334Ala/Arg335Ala/Arg338Ala) (enzyme)”, the stoichiometry N (commonly the number of molecules, sites or subunits per partner or assembly) worked out at 2.
